PMC3150276

Molecular target: MogR, full-length (transcriptional repressor of flagellar motility genes) (Listeria monocytogenes)
Sequence (G2K449 whole entry): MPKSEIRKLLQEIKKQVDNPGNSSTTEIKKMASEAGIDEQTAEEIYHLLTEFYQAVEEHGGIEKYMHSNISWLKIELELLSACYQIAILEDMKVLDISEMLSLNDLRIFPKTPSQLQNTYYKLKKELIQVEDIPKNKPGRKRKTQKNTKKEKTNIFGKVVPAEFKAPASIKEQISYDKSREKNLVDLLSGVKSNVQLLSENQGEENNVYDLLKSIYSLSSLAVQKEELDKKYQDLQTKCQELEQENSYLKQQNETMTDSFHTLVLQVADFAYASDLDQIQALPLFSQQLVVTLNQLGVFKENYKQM

Question: Which gel mobility shift at 37°C: amount of purified GmaR-His6 needed to decrease shifted MogR-His6:DNA complexes as at 30°C does the source give for “GmaR, full-length (bifunctional flagellar anti-repressor/glycosyltransferase) (natural protein)” here?
Answer: Its gel mobility shift at 37°C: amount of purified GmaR-His6 needed to decrease shifted MogR-His6:DNA complexes as at 30°C is greater than 2 fold.
